Consider seven molecules from patent US20230414735A1, “NEOANTIGENS AND METHODS OF THEIR USE” (priority 2016, published 2023).

The target of test [1] is HLA-B08:01 (human). Kind of test: competition with 125I probe peptide for purified HLA class I. To be noted: remark: other sources report otherwise.
In test [2] the target is HLA-B08:01 (human). Nature of the test: pMHC-I dissociation, 125I-b2m. To be noted: remark: other sources report otherwise.
For test [3], the target named is HLA-B08:01 (human). Kind of test: competition with 125I probe peptide on purified HLA.

B1: … (peptide)
peptide: NQRPILTII
B1: in the test with HLA-B08:01 (human) [1], the 50% inhibitory concentration (IC50) (as a rule, the concentration needed to halve the response being measured) stood at 20 nM.

B2: … (peptide)
peptide: GMNWRPILTI
In the test with HLA-B08:01 (human) [2], B2 registered a Stability (T1/2 (h)) of 0 h.

B3: … (peptide)
peptide: SLRRKYLRV
For the molecule B3, in the test with HLA-B08:01 (human) [3], the IC50 was determined as 0.4 nM.

B4: … (peptide)
peptide: LPRKPTRAA
Take B4: the Stability (T1/2 (h)) in the test with HLA-B08:01 (human) [2] stood at 0 h.

B5: … (peptide)
peptide: CMGSMNRRPI
The molecule B5 displayed an IC50 with HLA-B08:01 (human) [1] of 80 nM.

B6: … (peptide)
peptide: MALNSEALSV
B6: the Stability (T1/2 (h)) with HLA-B08:01 (human) [2] came to 0 h.

B7: … (peptide)
peptide: MNWRPILTI
With B7, the Stability (T1/2 (h)) with HLA-B08:01 (human) [2] worked out at 0 h. In addition, in the test with HLA-B08:01 (human) [1], the 50% inhibitory concentration (IC50) turned out to be 1 nM.
